Test results: patent US20210246224A1 (Regeneron, published 2021)

Tests used:
[1] = target: human HER2 expressed on cells (cancer cell lines and normal primary cultures) (human, UniProt P04626 23-1255); experiment: cell-based or functional assay
[2] = target: T1, human APLP2 extracellular domain expressed with a C-terminal myc-myc-hexahistidine tag (human, UniProt Q06481 32-692); experiment: SPR (Biacore 4000), antibody captured on anti-human Fc, hAPLP2-MMH injected, 37 C
T1 construct: also called hAPLP2-MMH; APLP2.mmh
Description: Equilibrium dissociation constants (KD values) for HER2 and APLP2 binding to purified anti-HER2xAPLP2 bispecific and parental antibodies were determined using a real-time surface plasmon resonance biosensor using a Biacore 4000 instrument. The Biacore sensor surface was first derivatized by amine coupling with a monoclonal mouse anti-human Fc antibody (GE, Cat #BR-1008-39) to capture anti-HER2xAPLP2 bispecific monoclonal antibodies. […] Kinetic association rate constant (ka) and dissociation rate constant (kd) were determined by fitting the real-time sensorgrams to a 1:1 binding model using Scrubber 2.0c curve fitting software. Binding dissociation equilibrium constants (KD) and dissociative half-lives (t1/2) were calculated from the kinetic rate constants as: […]

[3] = target: T1, human APLP2 extracellular domain …; experiment: SPR, antibody captured, hAPLP2-MMH injected, 25 C

100 nM hAPLP2-MMH Bound (RU) [2]	90 nM hAPLP2-MMH Bound (RU) [3]	Kd [3]	t½ [3]	Kd [2]	t½ [2]	Binder	IC50 (nM) of cell killing, JIMT-1 cells, 6 days, nuclei count [1]	further results
0 RU						H4H13055P2 (antibody, V domains shown, fully human antibody; also called anti-HER2 parental antibody) VH: QVQLQESGPGLVKPSQTLSLTCTVSGGSISSGHYFWSWIRQHPGKGLEWIGYIFYSGSTHYNPSLKSRLSISVDTSKNQFSLRLTSVTAADTAVYYCAREEGDYNFWDVDYVPGHFDYWGQGTLVTVSS VL: not shown		binding result [2]: no binding (tested: 300 nM highest concentration injected)
114 RU	60.5 RU	11.3 nM	11 min	124 nM	1.1 min	H4xH21387P2 (antibody, V domains shown, fully human antibody; also called anti-APLP2 parental antibody) VH: EVQLVESGGGLVQPGRSLRLSCVASGFTFADYAMHWVRQAPGKGLEWVSGISWNSGNIDYADSVKGRFTISRDNAKNSLYLQMNSLRTEDTALYYCAKVRIVVAGYYYYYYGMDVWGQGTTVTVSS VL: not shown		
34 RU	36.6 RU	11.2 nM	10.9 min	176 nM	1.3 min	H4xH21362P2 (antibody, V domains shown, fully human antibody; also called anti-APLP2 parental antibody) VH: EVQLVESGGGLVQPGGSLRLSCAASGFTFSTYVMSWVRQAPGKGPEWVSGISGRTGTTYYADSVKGRFTISRDNSKNTLYLQMNSLRAEDTAVYYCASRITAAGRGYYYYYGMDVWGRGTTVTVSS VL: not shown		
48 RU	52.1 RU	21.7 nM	0.5 min	899 nM	0.03 min	H4xH21371P2 (antibody, V domains shown, fully human antibody; also called anti-APLP2 parental antibody) VH: QVQLVQSGVEVKKPGASVKVSCKASGYTFTDYGISWVRQAPGQGLEWMGWISAHNGNTNYAQKLQGRVTMTTDTSTNTAYMELRSLRSDDTAVYYCARRNWKYFDYWGQGTLVTVSS VL: not shown		
-3 RU						H4H13050P2 (antibody, V domains shown, Names starting with H4 or H4H denote fully human antibodies; also called anti-HER2 parental antibody) VH: QVQLVQSGPEVKKPGASVKVSCKASGYTFPNFGISWVRQAPGQGLEWMGWIAPYNVATNYAPKLQGRVTMTTDTSTSTAYMELRSLRSDDTAVYYCARWGAGYMGYYYYGMDVWGQGTTVTVSS VL: not shown		

More lines, now with the values behind:

Binder	100 nM hAPLP2-MMH Bound (RU) [2]	90 nM hAPLP2-MMH Bound (RU) [3]	Kd [3]	t½ [3]	Kd [2]	t½ [2]	IC50 (nM) of cell killing, JIMT-1 cells, 6 days, nuclei count [1]	further results
H4H25018D-SMCC-DM1 (bispecific antibody, IgG4, V domains shown, SMCC-DM1 on lysines, sites not stated) VH 1: QVQLQESGPGLVKPSQTLSLTCTVSGGSISSGHYFWSWIRQHPGKGLEWIGYIFYSGSTHYNPSLKSRLSISVDTSKNQFSLRLTSVTAADTAVYYCAREEGDYNFWDVDYVPGHFDYWGQGTLVTVSS VH 2: EVQLVESGGGLVQPGRSLRLSCVASGFTFADYAMHWVRQAPGKGLEWVSGISWNSGNIDYADSVKGRFTISRDNAKNSLYLQMNSLRTEDTALYYCAKVRIVVAGYYYYYYGMDVWGQGTTVTVSS VL: not shown							0.07 nM	
H4H25019D-SMCC-DM1 (bispecific antibody, V domains shown, SMCC-DM1 on lysines, sites not stated) VH 1: QVQLVQSGPEVKKPGASVKVSCKASGYTFPNFGISWVRQAPGQGLEWMGWIAPYNVATNYAPKLQGRVTMTTDTSTSTAYMELRSLRSDDTAVYYCARWGAGYMGYYYYGMDVWGQGTTVTVSS VH 2: EVQLVESGGGLVQPGRSLRLSCVASGFTFADYAMHWVRQAPGKGLEWVSGISWNSGNIDYADSVKGRFTISRDNAKNSLYLQMNSLRTEDTALYYCAKVRIVVAGYYYYYYGMDVWGQGTTVTVSS VL: not shown							0.13 nM	
H4H25019D-Compound I (bispecific antibody, V domains shown, Compound I on lysines, sites not stated) VH 1: QVQLVQSGPEVKKPGASVKVSCKASGYTFPNFGISWVRQAPGQGLEWMGWIAPYNVATNYAPKLQGRVTMTTDTSTSTAYMELRSLRSDDTAVYYCARWGAGYMGYYYYGMDVWGQGTTVTVSS VH 2: EVQLVESGGGLVQPGRSLRLSCVASGFTFADYAMHWVRQAPGKGLEWVSGISWNSGNIDYADSVKGRFTISRDNAKNSLYLQMNSLRTEDTALYYCAKVRIVVAGYYYYYYGMDVWGQGTTVTVSS VL: not shown							0.75 nM	
H4H25018D-Compound I (bispecific antibody, V domains shown, Compound I on lysines, sites not stated) VH 1: QVQLQESGPGLVKPSQTLSLTCTVSGGSISSGHYFWSWIRQHPGKGLEWIGYIFYSGSTHYNPSLKSRLSISVDTSKNQFSLRLTSVTAADTAVYYCAREEGDYNFWDVDYVPGHFDYWGQGTLVTVSS VH 2: EVQLVESGGGLVQPGRSLRLSCVASGFTFADYAMHWVRQAPGKGLEWVSGISWNSGNIDYADSVKGRFTISRDNAKNSLYLQMNSLRTEDTALYYCAKVRIVVAGYYYYYYGMDVWGQGTTVTVSS VL: not shown							0.2 nM	
